# Measurements from the supplement of paper PMC9112550, “Optimization of the antimicrobial peptide Bac7 by deep mutational scanning” (BMC Biology, 2022).
# Test system: Escherichia coli TOP10
# Assay: shrunken log2 fold change of peptide-encoding DNA abundance (4.5 h post-induction vs induction); higher = less antimicrobial activity (less host growth inhibition)
# Details: time post-induction: 4.5 h; library: site-saturation at positions 5, 18, 19, 20
# 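Also: peptides expressed intracellularly from a pBAD plasmid library in pooled LB shake-flask culture, induced with 0.3% L-arabinose, DNA abundance read by NGS, three biological replicates, DESeq2 with apeglm shrinkage.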
row,Sequence,shrunken log2 fold change
1,RRIRLRPPRLPRPRPRPRKCPRP,0.309
2,RRIRSRPPRLPRPRPRPHNRPRP,0.0124
3,RRIRGRPPRLPRPRPRPVFNPRP,0.155
4,RRIRLRPPRLPRPRPRPFEQPRP,0.305
5,RRIRQRPPRLPRPRPRPYVRPRP,-0.216
6,RRIRERPPRLPRPRPRPHMEPRP,-0.118
7,RRIRGRPPRLPRPRPRPTVMPRP,0.074
8,RRIRMRPPRLPRPRPRPMPSPRP,0.262
9,RRIRVRPPRLPRPRPRPPGFPRP,0.842
10,RRIRARPPRLPRPRPRPLFHPRP,-0.249
11,RRIRCRPPRLPRPRPRPQSVPRP,-0.125
12,RRIRMRPPRLPRPRPRPWKRPRP,-0.0605
13,RRIRDRPPRLPRPRPRPLNQPRP,-0.009
14,RRIRHRPPRLPRPRPRPMVFPRP,0.14
15,RRIRARPPRLPRPRPRPTSQPRP,0.211
16,RRIRTRPPRLPRPRPRPRNVPRP,-0.128
17,RRIRQRPPRLPRPRPRPARNPRP,0.298
18,RRIRARPPRLPRPRPRPTHRPRP,0.46
19,RRIRWRPPRLPRPRPRPNAMPRP,0.123
20,RRIRERPPRLPRPRPRPFEFPRP,-0.629
21,RRIRARPPRLPRPRPRPATKPRP,0.531
22,RRIRPRPPRLPRPRPRPMDNPRP,-0.683
23,RRIRRRPPRLPRPRPRPRPQPRP,0.541
24,RRIRHRPPRLPRPRPRPHWWPRP,0.0507
25,RRIRPRPPRLPRPRPRPEGIPRP,-0.00608

row,Sequence,shrunken log2 fold change
1,RRIRNRPPRLPRPRPRPDIPPRP,-0.588
2,RRIRVRPPRLPRPRPRPVWAPRP,0.394
3,RRIRYRPPRLPRPRPRPKCDPRP,-0.529
4,RRIRDRPPRLPRPRPRPQHKPRP,-0.217
5,RRIRARPPRLPRPRPRPRSEPRP,0.42
6,RRIRCRPPRLPRPRPRPYDKPRP,-0.985
7,RRIRTRPPRLPRPRPRPERWPRP,0.354
8,RRIRLRPPRLPRPRPRPNNVPRP,-0.395
9,RRIRGRPPRLPRPRPRPVKGPRP,0.276
10,RRIRDRPPRLPRPRPRPQVSPRP,0.0416
11,RRIRHRPPRLPRPRPRPANCPRP,-0.246
12,RRIRVRPPRLPRPRPRPNQKPRP,-0.115
13,RRIRCRPPRLPRPRPRPLVYPRP,-0.548
14,RRIRKRPPRLPRPRPRPLEGPRP,0.162
15,RRIRCRPPRLPRPRPRPKGSPRP,0.189
16,RRIRSRPPRLPRPRPRPHHDPRP,-0.759
17,RRIRIRPPRLPRPRPRPTIVPRP,0.119
18,RRIRLRPPRLPRPRPRPSRNPRP,-0.0105
19,RRIRLRPPRLPRPRPRPAMAPRP,0.00127
20,RRIRHRPPRLPRPRPRPQENPRP,-0.245
21,RRIRCRPPRLPRPRPRPYHHPRP,-0.746
22,RRIRLRPPRLPRPRPRPWCAPRP,-0.0114
23,RRIRWRPPRLPRPRPRPTSLPRP,0.0239
24,RRIRWRPPRLPRPRPRPFLSPRP,-0.0328
25,RRIRHRPPRLPRPRPRPGFNPRP,-0.0117

row,Sequence,shrunken log2 fold change
1,RRIRSRPPRLPRPRPRPPWVPRP,0.433
2,RRIRCRPPRLPRPRPRPIHWPRP,-0.363
3,RRIRPRPPRLPRPRPRPIGQPRP,0.121
4,RRIRHRPPRLPRPRPRPHGIPRP,-0.0284
5,RRIRARPPRLPRPRPRPQLWPRP,0.569
6,RRIRRRPPRLPRPRPRPMRVPRP,0.93
7,RRIRHRPPRLPRPRPRPIHEPRP,-0.153
8,RRIRFRPPRLPRPRPRPQPLPRP,-0.0304
9,RRIRERPPRLPRPRPRPGGWPRP,0.492
10,RRIRERPPRLPRPRPRPTPDPRP,0.116
11,RRIRYRPPRLPRPRPRPLPDPRP,-0.108
12,RRIRYRPPRLPRPRPRPKYTPRP,-0.415
13,RRIRNRPPRLPRPRPRPFGCPRP,-0.128
14,RRIRPRPPRLPRPRPRPIGWPRP,0.376
15,RRIRTRPPRLPRPRPRPSATPRP,0.273
16,RRIRFRPPRLPRPRPRPIQCPRP,-0.105
17,RRIRPRPPRLPRPRPRPPSEPRP,0.447
18,RRIRGRPPRLPRPRPRPGIQPRP,0.591
19,RRIRVRPPRLPRPRPRPVMQPRP,-0.0429
20,RRIRVRPPRLPRPRPRPPCQPRP,0.0844
21,RRIRRRPPRLPRPRPRPFLKPRP,-0.0464
22,RRIRKRPPRLPRPRPRPVEVPRP,0.0844
23,RRIRDRPPRLPRPRPRPKATPRP,0.00253
24,RRIRMRPPRLPRPRPRPCRPPRP,0.00908
25,RRIRTRPPRLPRPRPRPYEGPRP,-0.0536

row,Sequence,shrunken log2 fold change
1,RRIRWRPPRLPRPRPRPDHPPRP,-0.0785
2,RRIRQRPPRLPRPRPRPANWPRP,0.431
3,RRIRKRPPRLPRPRPRPSHTPRP,-0.0409
4,RRIRTRPPRLPRPRPRPIDRPRP,-0.148
5,RRIRERPPRLPRPRPRPNDMPRP,-0.0595
6,RRIRVRPPRLPRPRPRPQKKPRP,-0.117
7,RRIRDRPPRLPRPRPRPQQGPRP,-0.00207
8,RRIRPRPPRLPRPRPRPFCQPRP,-0.257
9,RRIRCRPPRLPRPRPRPYDAPRP,-0.334
10,RRIRNRPPRLPRPRPRPFWGPRP,-0.157
11,RRIRFRPPRLPRPRPRPPGHPRP,0.337
12,RRIRTRPPRLPRPRPRPYCTPRP,1.36
13,RRIRSRPPRLPRPRPRPTHGPRP,0.28
14,RRIRRRPPRLPRPRPRPHRKPRP,-0.247
15,RRIRRRPPRLPRPRPRPNHSPRP,-0.321
16,RRIRARPPRLPRPRPRPNKCPRP,-0.311
17,RRIRERPPRLPRPRPRPADYPRP,-0.379
18,RRIRARPPRLPRPRPRPMTRPRP,0.849
19,RRIRHRPPRLPRPRPRPCRMPRP,0.0591
20,RRIRIRPPRLPRPRPRPVRTPRP,-0.0633
21,RRIRHRPPRLPRPRPRPSYLPRP,-0.683
22,RRIRTRPPRLPRPRPRPAWAPRP,1.53
23,RRIRTRPPRLPRPRPRPCTLPRP,-0.314
24,RRIRRRPPRLPRPRPRPSWHPRP,-0.0466
25,RRIRNRPPRLPRPRPRPHGHPRP,-0.0841

row,Sequence,shrunken log2 fold change
1,RRIRARPPRLPRPRPRPIHQPRP,-0.0255
2,RRIRARPPRLPRPRPRPMHTPRP,0.261
3,RRIRNRPPRLPRPRPRPMTTPRP,-0.174
4,RRIRQRPPRLPRPRPRPNHSPRP,-0.762
5,RRIRERPPRLPRPRPRPHIAPRP,-0.099
6,RRIRMRPPRLPRPRPRPIKCPRP,-0.0724
7,RRIRCRPPRLPRPRPRPRYRPRP,-0.176
8,RRIRNRPPRLPRPRPRPHIEPRP,-0.195
9,RRIRDRPPRLPRPRPRPSLWPRP,1.09
10,RRIRARPPRLPRPRPRPYDAPRP,0.0611
11,RRIRFRPPRLPRPRPRPCIIPRP,-0.568
12,RRIRTRPPRLPRPRPRPEYGPRP,-0.0673
13,RRIRCRPPRLPRPRPRPANMPRP,-0.277
14,RRIRGRPPRLPRPRPRPEHHPRP,0.262
15,RRIRHRPPRLPRPRPRPRISPRP,0.0117
16,RRIRTRPPRLPRPRPRPCAWPRP,-0.277
17,RRIRYRPPRLPRPRPRPDFGPRP,-0.251
18,RRIRHRPPRLPRPRPRPNEPPRP,-0.00438
19,RRIRRRPPRLPRPRPRPRYFPRP,0.502
20,RRIRTRPPRLPRPRPRPGWDPRP,0.129
21,RRIRSRPPRLPRPRPRPNPRPRP,0.0955
22,RRIRPRPPRLPRPRPRPCEVPRP,0.00799
23,RRIRLRPPRLPRPRPRPRVTPRP,-0.243
24,RRIRARPPRLPRPRPRPFVLPRP,-0.181
25,RRIRRRPPRLPRPRPRPAQFPRP,0.135
